In patent US20200085871A1:
“And” between values parts separate entries of the source, which are not always exact repeats. Equal values may be shown once.

Molecular target: mouse CD19 on B cells (mouse) (UniProt P25918)
Experiment: cell-based or functional assay

Chain of UniProt P25918 (P25918 19-547): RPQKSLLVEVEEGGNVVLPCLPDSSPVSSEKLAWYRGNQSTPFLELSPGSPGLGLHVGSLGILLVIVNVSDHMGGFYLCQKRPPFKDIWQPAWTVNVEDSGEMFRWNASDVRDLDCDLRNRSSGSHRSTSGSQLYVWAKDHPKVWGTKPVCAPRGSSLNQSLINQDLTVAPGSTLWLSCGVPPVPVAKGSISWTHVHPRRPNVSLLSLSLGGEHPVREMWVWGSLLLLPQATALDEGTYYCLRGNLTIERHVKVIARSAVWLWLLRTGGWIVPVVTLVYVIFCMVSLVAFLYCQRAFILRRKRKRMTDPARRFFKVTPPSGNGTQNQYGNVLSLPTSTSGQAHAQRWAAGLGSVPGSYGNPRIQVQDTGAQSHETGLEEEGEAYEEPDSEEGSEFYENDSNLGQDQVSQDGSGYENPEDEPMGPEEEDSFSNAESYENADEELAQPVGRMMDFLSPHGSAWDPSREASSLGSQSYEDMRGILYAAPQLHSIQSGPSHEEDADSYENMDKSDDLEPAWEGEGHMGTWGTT

Substance: anti-CD19-28Z.1-3 CAR (1D3 anti-mouse CD19 chimeric antigen receptor), expressed on transduced mouse CD8+ cytotoxic T cells (from UniProt P31041 115-218; P24161 52-164)
- percent CD19+ B cells remaining in CAR T-treated MRL/lpr mice (flow cytometry): 0.05% and 0.14%
